Biological target: NCOR1 peptide (Homo sapiens, UniProt O75376)
Assay: SPR

Chain of NCOR1 peptide (O75376 whole entry): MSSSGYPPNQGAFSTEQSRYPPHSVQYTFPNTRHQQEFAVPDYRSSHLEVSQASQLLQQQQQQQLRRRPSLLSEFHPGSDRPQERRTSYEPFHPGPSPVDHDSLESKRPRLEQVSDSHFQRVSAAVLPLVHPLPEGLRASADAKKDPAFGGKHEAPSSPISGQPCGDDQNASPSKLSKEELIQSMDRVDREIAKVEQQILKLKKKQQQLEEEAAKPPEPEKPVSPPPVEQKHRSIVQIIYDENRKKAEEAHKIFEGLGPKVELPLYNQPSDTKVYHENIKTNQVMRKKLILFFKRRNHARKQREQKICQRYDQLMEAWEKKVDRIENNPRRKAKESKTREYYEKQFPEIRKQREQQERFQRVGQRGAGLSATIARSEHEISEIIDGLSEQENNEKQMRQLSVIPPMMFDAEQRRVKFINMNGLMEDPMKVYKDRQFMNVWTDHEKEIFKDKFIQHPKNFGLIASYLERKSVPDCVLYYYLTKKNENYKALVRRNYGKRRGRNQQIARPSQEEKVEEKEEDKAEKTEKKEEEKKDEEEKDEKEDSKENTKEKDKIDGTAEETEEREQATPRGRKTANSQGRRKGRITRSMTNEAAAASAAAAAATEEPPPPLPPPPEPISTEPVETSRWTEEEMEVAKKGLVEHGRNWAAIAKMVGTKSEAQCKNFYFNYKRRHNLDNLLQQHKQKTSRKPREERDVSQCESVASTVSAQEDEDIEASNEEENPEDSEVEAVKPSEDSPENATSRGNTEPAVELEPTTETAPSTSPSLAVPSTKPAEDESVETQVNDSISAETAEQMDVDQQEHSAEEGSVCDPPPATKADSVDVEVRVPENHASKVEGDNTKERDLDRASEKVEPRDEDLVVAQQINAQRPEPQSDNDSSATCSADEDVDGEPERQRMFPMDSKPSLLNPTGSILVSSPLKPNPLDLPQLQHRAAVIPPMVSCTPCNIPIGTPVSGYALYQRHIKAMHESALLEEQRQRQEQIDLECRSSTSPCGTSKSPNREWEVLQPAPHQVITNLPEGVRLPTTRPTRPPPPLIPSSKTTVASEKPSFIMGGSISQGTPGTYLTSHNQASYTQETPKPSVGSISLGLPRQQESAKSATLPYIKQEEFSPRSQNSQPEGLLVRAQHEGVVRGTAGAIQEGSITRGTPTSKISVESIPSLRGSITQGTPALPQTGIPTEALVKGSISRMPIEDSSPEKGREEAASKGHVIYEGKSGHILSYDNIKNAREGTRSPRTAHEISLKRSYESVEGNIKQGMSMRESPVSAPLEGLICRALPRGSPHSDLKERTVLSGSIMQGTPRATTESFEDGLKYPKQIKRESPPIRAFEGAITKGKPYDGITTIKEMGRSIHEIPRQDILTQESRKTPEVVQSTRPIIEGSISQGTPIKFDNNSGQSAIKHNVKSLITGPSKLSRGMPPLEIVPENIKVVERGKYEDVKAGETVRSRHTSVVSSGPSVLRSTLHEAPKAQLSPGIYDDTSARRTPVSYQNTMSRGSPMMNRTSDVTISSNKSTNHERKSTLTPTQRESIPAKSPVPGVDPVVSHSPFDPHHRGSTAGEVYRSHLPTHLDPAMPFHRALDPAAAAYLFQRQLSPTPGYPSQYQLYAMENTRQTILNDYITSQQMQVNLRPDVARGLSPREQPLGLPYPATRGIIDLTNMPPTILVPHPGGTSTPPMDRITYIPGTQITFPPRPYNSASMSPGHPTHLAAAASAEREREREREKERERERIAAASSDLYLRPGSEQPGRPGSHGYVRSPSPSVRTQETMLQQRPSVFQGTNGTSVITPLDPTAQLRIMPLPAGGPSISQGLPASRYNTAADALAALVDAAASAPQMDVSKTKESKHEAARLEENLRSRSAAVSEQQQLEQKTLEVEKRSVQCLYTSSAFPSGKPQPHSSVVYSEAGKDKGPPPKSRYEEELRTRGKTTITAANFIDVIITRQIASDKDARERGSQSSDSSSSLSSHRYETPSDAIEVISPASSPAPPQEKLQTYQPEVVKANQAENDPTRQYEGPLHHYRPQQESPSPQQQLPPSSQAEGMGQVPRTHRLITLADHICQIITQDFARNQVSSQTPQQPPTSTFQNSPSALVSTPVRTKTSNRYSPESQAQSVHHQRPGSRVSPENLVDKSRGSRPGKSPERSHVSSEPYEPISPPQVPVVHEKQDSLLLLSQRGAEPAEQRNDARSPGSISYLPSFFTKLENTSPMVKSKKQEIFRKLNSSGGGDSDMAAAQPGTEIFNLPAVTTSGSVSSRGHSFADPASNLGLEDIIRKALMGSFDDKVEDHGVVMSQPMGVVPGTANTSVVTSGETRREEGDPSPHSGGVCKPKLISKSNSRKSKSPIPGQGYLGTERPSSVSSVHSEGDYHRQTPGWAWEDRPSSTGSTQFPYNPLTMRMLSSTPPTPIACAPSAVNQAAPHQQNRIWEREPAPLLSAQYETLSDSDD

Kd [nM] | Binder
500 | LXRβ LBD (protein) AQELMIQQLVAAQLQCNKRSFSDQPKVTPWPLGADPQSRDARQQRFAHFTELAIISVQEIVDFAKQVPGFLQLGREDQIALLKASTIEIMLLETARRYNHETECITFLKDFTYSKDDFHRAGLQVEFINPIFEFSRAMRRLGLDDAEYALLIAINIFSADRPNVQEPGRVEALQQPYVEALLSYTRIKRPQDQLRFPRMLMKLVSLRTLSSVHSEQVFALRLQDKKLPPLLSEIWDVHE
800 | LXRα LBD (protein) EQLGMIEKLVAAQQQCNRRSFSDRLRVTPWPMAPDPHSREARQQRFAHFTELAIVSVQEIVDFAKQLPGFLQLSREDQIALLKTSAIEVMLLETSRRYNPGSESITFLKDFSYNREDFAKAGLQVEFINPIFEFSRAMNELQLNDAEFALLIAISIFSADRPNVQDQLQVERLQHTYVEALHAYVSIHHPHDRLMFPRMLMKLVSLRTLSSVHSEQVFALRLQDKKLPPLLSEIWDVHE

Biological target: SRC1 peptide (Homo sapiens, UniProt Q15788)
Assay: SPR

Chain of SRC1 peptide (Q15788 2-1441): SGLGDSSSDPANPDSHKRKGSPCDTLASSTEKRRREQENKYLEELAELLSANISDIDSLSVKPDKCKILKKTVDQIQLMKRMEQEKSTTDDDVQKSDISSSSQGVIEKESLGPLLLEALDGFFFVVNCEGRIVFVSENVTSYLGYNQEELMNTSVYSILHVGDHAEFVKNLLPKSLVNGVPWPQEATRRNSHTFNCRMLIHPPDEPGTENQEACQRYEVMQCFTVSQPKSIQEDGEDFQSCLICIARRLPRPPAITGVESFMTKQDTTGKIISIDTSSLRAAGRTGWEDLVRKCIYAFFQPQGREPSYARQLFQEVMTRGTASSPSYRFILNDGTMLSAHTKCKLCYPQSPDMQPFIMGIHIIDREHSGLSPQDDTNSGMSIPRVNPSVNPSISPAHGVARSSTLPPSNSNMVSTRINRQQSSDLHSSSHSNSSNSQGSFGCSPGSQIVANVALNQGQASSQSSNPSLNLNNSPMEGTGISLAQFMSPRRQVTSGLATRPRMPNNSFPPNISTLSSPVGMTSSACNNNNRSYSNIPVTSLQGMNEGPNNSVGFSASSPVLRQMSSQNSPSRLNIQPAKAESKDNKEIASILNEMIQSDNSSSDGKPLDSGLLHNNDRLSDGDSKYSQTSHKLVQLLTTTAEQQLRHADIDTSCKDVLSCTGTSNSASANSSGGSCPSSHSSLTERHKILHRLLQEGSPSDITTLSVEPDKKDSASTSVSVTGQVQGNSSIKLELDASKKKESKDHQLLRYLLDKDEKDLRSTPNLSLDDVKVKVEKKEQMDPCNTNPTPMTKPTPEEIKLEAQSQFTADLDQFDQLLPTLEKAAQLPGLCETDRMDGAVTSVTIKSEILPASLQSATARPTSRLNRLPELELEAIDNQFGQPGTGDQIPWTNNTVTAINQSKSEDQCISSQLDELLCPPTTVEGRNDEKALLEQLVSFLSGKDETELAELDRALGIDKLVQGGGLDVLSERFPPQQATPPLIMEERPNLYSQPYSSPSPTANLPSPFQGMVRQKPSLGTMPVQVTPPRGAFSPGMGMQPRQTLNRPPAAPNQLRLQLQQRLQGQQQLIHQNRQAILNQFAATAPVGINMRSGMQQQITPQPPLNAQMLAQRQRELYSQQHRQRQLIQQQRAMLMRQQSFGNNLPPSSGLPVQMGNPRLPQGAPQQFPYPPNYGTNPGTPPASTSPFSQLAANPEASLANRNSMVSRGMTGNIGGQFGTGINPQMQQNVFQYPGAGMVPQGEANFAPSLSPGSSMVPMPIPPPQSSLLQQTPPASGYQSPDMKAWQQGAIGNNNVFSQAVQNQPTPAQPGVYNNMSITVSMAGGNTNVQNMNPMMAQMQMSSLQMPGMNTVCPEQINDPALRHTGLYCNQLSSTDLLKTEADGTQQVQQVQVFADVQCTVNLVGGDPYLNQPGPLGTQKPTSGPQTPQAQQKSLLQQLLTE

Kd [nM] | Binder
19800 | LXRβ LBD (protein, BMS-852927) AQELMIQQLVAAQLQCNKRSFSDQPKVTPWPLGADPQSRDARQQRFAHFTELAIISVQEIVDFAKQVPGFLQLGREDQIALLKASTIEIMLLETARRYNHETECITFLKDFTYSKDDFHRAGLQVEFINPIFEFSRAMRRLGLDDAEYALLIAINIFSADRPNVQEPGRVEALQQPYVEALLSYTRIKRPQDQLRFPRMLMKLVSLRTLSSVHSEQVFALRLQDKKLPPLLSEIWDVHE
2500 | LXRβ LBD (protein, 24,25EC) AQELMIQQLVAAQLQCNKRSFSDQPKVTPWPLGADPQSRDARQQRFAHFTELAIISVQEIVDFAKQVPGFLQLGREDQIALLKASTIEIMLLETARRYNHETECITFLKDFTYSKDDFHRAGLQVEFINPIFEFSRAMRRLGLDDAEYALLIAINIFSADRPNVQEPGRVEALQQPYVEALLSYTRIKRPQDQLRFPRMLMKLVSLRTLSSVHSEQVFALRLQDKKLPPLLSEIWDVHE
1500 | LXRα LBD (protein, AZ6) EQLGMIEKLVAAQQQCNRRSFSDRLRVTPWPMAPDPHSREARQQRFAHFTELAIVSVQEIVDFAKQLPGFLQLSREDQIALLKTSAIEVMLLETSRRYNPGSESITFLKDFSYNREDFAKAGLQVEFINPIFEFSRAMNELQLNDAEFALLIAISIFSADRPNVQDQLQVERLQHTYVEALHAYVSIHHPHDRLMFPRMLMKLVSLRTLSSVHSEQVFALRLQDKKLPPLLSEIWDVHE
1200 | LXRα LBD (protein, lipogenic agonists (average)) EQLGMIEKLVAAQQQCNRRSFSDRLRVTPWPMAPDPHSREARQQRFAHFTELAIVSVQEIVDFAKQLPGFLQLSREDQIALLKTSAIEVMLLETSRRYNPGSESITFLKDFSYNREDFAKAGLQVEFINPIFEFSRAMNELQLNDAEFALLIAISIFSADRPNVQDQLQVERLQHTYVEALHAYVSIHHPHDRLMFPRMLMKLVSLRTLSSVHSEQVFALRLQDKKLPPLLSEIWDVHE

Reference: paper PMC6874530 (2019)
